In US20050182242A1, “Global analysis of protein activities using proteome chips” (priority 2001, published 2005):

Legend:
Settings in all cases: liposome binding signal on yeast proteome chip, Cy3-streptavidin detection
[1] = test system: phosphatidylcholine (PC) liposomes; assay: Yeast proteome chip probed with PC liposomes
From the text: (§1) To identify PI-binding proteins in yeast, liposomes were used as probes because the liposome provides the most relevant physiological condition to assay the interactors. Six types of liposomes were used. Each contains phosphatidylcholine (“PC”) with 1% (w/w) N-(biotinoyl)-1,2-dihexadecanoyl-sn-glycero-3-phosphoethanolamine, triethylammonium salt (biotin DHPE). The biotinylated lipid serves as a label that can be detected by Cy3-streptavidin (21). In addition to PC, the five other liposomes contain either 5% (w/w) PI(3)P, PI(4)P, PI(3,4)P2, PI(4,5)P2, or PI(3,4,5)P3 (FIG. 3A).
(§2) The protein-liposome interaction was assayed as follows. Appropriate amounts of each lipid in chloroform were mixed and dried under nitrogen. The lipid mixture was resuspended in TBS buffer by vortexing. The liposomes were created by sonication. Blocked proteome chips were washed three to five times in PBS buffer, and the extra liquid on the glass surface was removed by tapping the slides vertically on a KIMWIPE™. 200 μl of liposome solution was added to the proteome chip and immediately covered by a hydrophobic plastic cover slip (GRACE BIO-LAB™, USA). After trapped air bubbles were removed, the chip was incubated in a humidity chamber at RT for one hour. To remove the cover slip, the chip was immersed into large volume of PBS buffer (50 ml), so that the slip would float away. The chip was then moved to a second PBS bath (>50 ml) and washed 3×5 min with shaking at RT. After removing extra liquid on the surface of the chip, about 100 μl of Cy3 or Cy5 conjugated streptavidin (PIERCE™, USA; 1:2000 to 1:4000 dilution) was added to the surface and covered by a hydrophobic plastic cover slip (GRACE BIO-LABS™, USA). The chip was incubated for greater than 30 min in the dark at RT. The chip was then washed as described above. To completely remove the liquid on the chip, the chip was spun to dryness at 1500-2000 rpm for 5-10 min at RT.
(§3) • 1. S. Fields, Y. Kohara, D. J. Lockhart, Proc. Natl. Acad. Sci. 96, 8825 (1999); A. Goffeau et al., Science 274, 563 (1996). • 2 P. Ross-Macdonald et al., Nature 402, 413 (1999); J. L., DeRisi, V. R. Iyer, P. O. Brown, Science 278, 680 (1997); E. A. Winzeler et al., Science 285, 901 (1999). P. Uetz et al., Nature 403, 623 (2000); T. Ito et al., Proc. Natl. Acad. Sci. USA. 97, 1143 (2000) • 3 H. Zhu, M. Snyder, Curr. Opin. Chem. Biol. 5, 40 (2001). • 4 M. R. Martzen et al., Science 286, 1153 (1999). • 5 H. Zhu et al., Nat. Genet. 26, 283 (2000). • 6 G. MacBeath, S. L. Schreiber, Science 289, 1760 (2000). • 7 A. Caveman, J. Cell Sci. 113, 3543 (2000). • 8 P. Arenkov et al., Anal. Biochem 278, 123 (2000). • 9 D. A. Mitchell, T. K. Marshall, R. J. Deschenes, Yeast 9, 715 (1993). The expression vector pEGH was created by inserting an RGS-HisX6 epitope tag between the GST gene and the polycloning site of pEG(KG). The yeast ORFs were cloned using the strategy described previously (5), except every step was done in a 96-well format. Plasmid DNAs confirmed by DNA sequencing were reintroduced into both yeast (Y258) and E. coli (DH5a). […] 0.1 mM calcium was present in buffers in all subsequent steps. The chip was washed three times with PBS at RT. Cy3-conjugated streptavidin (Jackson IR, USA) (1:5000 dilution) was added to the chip and incubated for 30 min at RT. After extensive washing, the chip was spun dry and scanned using a microarray scanner; the data was subsequently acquired with the GENEPIX™ array densitometry software (Axon, USA). • 12 S. S. Hook, A. R. Means, Annu. Rev. Pharmacol. Toxicol.41, 471 (2001). • 13 M. S. Cyert, R. Kunisawa, D. Kaim, J. Thorner, Proc. Natl. Acad. Sci. USA 88, 7376 (1991). • 14 D. A. Stirling, K. A. Welch, M. J. Stark, EMBO J. 13, 4329 (1994). • 15 F. Bohl, Kruse, EMBO J. 19, 5514 (2000); E. Bertrand et al., Mol. Cell 2, 437 (1998). • 16 D. C. Winter, E. Y. Choe, R. Li, Proc. Nat. Acad Sci. USA 96, 7288 (1999). • 17 C.

PI(3,4,5)P3 liposomes = assay: Yeast proteome chip probed with PI(3,4,5)P3 liposomes
From the text: as §1, §2, §3

PI(3,4)P2 liposomes = assay: Yeast proteome chip probed with PI(3,4)P2 liposomes
From the text: as §1, §2, §3

PI(4,5)P2 liposomes = assay: Yeast proteome chip probed with PI(4,5)P2 liposomes
From the text: as §1, §2, §3

PI(4)P liposomes = assay: Yeast proteome chip probed with PI(4)P liposomes
From the text: as §1, §2, §3

B1: SUN4: yeast GST-HisX6 fusion protein on proteome chip (protein, UniProt P53616 25-420, looked up)
Probable secreted …: YAADIDTGCTTTAHGSHQHKRAVAVTYVYETVTVDKNGQTVTPTSTEASSTVASTTTLISESSVTKSSSKVASSSESTEQIATTSSSAQTTLTSSETSTSESSVPISTSGSASTSSAASSATGSIYGDLADFSGPYEKFEDGTIPCGQFPSGQGVIPISWLDEGGWSGVENTDTSTGGSCKEGSYCSYACQPGMSKTQWPSDQPSDGRSIGGLLCKDGYLYRSNTDTDYLCEWGVDAAYVVSELSNDVAICRTDYPGTENMVIPTYVQAGDSLPLTVVDQDTYYTWQGLKTSAQYYVNNAGISVEDACVWGSSSSGVGNWAPLNFGAGSSDGVAYLSLIPNPNNGNALNFNVKIVAADDSSTVNGECIYENGSFSGGSDGCTVSVTAGKAKFVLYN
modifications: GST-His6 tag
notes: yeast GST-HisX6 fusion protein on proteome chip
- PC [1]: 69.55
- PI(3, 4, 5)P3 (PI(3,4,5)P3 liposomes): 33.19
- PI(3, 4)P2 (PI(3,4)P2 liposomes): 20.88
- PI(4, 5)P2 (PI(4,5)P2 liposomes): 66.41
- PI(4)P (PI(4)P liposomes): 60.75

B2: PKR1: yeast GST-HisX6 fusion protein on proteome chip (protein, UniProt Q03880 1-122, looked up)
V-type ATPase assembly factor …: MANFFVRLWESVFEPGTSPQLIIATHVSFVALLLTLIWLIYATNGNIHFYALFCISLLLWITVIWFINELSHVKLKDNDELDKDANKKDDSAIKEDSEDKQESGKSTSTARRTQAQSRSRKA
modifications: GST-His6 tag
notes: as for B1
- PC [1]: 61.63
- PI(3, 4, 5)P3 (PI(3,4,5)P3 liposomes): 15.75
- PI(3, 4)P2 (PI(3,4)P2 liposomes): 37.52
- PI(4, 5)P2 (PI(4,5)P2 liposomes): 87.75
- PI(4)P (PI(4)P liposomes): 61.40

B3: WRS1: yeast GST-HisX6 fusion protein on proteome chip (protein, UniProt Q12109 1-432, looked up)
Tryptophan--tRNA ligase, …: MSNDETVEKVTQQVSELKSTDVKEQVVTPWDVEGGVDEQGRAQNIDYDKLIKQFGTKPVNEETLKRFKQVTGREPHHFLRKGLFFSERDFTKILDLYEQGKPFFLYTGRGPSSDSMHLGHMIPFVFTKWLQEVFDVPLVIELTDDEKFLFKHKLTINDVKNFARENAKDIIAVGFDPKNTFIFSDLQYMGGAFYETVVRVSRQITGSTAKAVFGFNDSDCIGKFHFASIQIATAFPSSFPNVLGLPDKTPCLIPCAIDQDPYFRVCRDVADKLKYSKPALLHSRFFPALQGSTTKMSASDDTTAIFMTDTPKQIQKKINKYAFSGGQVSADLHRELGGNPDVDVAYQYLSFFKDDDVFLKECYDKYKSGELLSGEMKKLCIETLQEFVKAFQERRAQVDEETLDKFMVPHKLVWGEKERLVAPKPKTKQEKK
modifications: GST-HisX6 tag
notes: as for B1
- PC [1]: 62.51
- PI(3, 4, 5)P3 (PI(3,4,5)P3 liposomes): 51.08
- PI(3, 4)P2 (PI(3,4)P2 liposomes): 63.10
- PI(4, 5)P2 (PI(4,5)P2 liposomes): 21.56
- PI(4)P (PI(4)P liposomes): 4.57

B4: SXM1: yeast GST-HisX6 fusion protein on proteome chip (protein, UniProt Q04175 1-944, looked up)
Importin beta SMX1: MVQEQAILSCIEQTMVADAKIIKEAEQQLFEFQKQPGFTSFLLNIVSDDNFALNVRLSSAIYLKNKIHRSWDTKREDGIKADEKLSIKERLIETLVKNCENNHIRPILTETINGILVGQEDWDLAPIIKNLLSSGDASYIYPGLLLLFQLCKAHRWDMVGSRDYIDSVIEELFPIVEGIASNIGSQTDYRSNEILYLILKSFKYACLNNLPQYFSQPERIMSWVQLHLYLCSKPLPVEVMELDPADRSLDKRVKVNKWGFGNLNRFLQRYNKITKAITKEFIDYIFNTIVPIILREFFKDIEAWGNNSLWLSDSSLYFLISFLEKCVTIDQLYPLIEPHLQIIFENVIFPCLCANEQSIELLEDDQEEYTRRYFDINREGSTPDAASADFIFLIGSKRPEKLNNILPFINDIFTRFDANSSDINMAFKEEGALRTLSNLFSFIDEPSVLENIFGHFIVPLLSQDKYMFLVARSLETIALYSEEFKDMNILSQLFELTYTNFLNSNVLPVQIEAADAIKCLIVSNPQIHPAVSAHVPGMMEKLLKLSKIFEIDILSEVMEALVERFSDELSPFAKDLASNLVEQFLRIAQALVENPSETYSASDQEQEIQASGLLQTMTTMVMSMNKVPLIESLAPVVKFVVLHAQISFITEAVDLLDALTISSHLLYNQIAPPIWELLHDILDSFQTYAMDYFEAYSIFFETIVMTGFPQDQTYVQPLLEILSAKLESEVDYDIEHVMQILMYFALSMRDIPLFSKAIKVSTNDELGLDSKCIVKLGLANLFAKPIETLQIMENEGFTINFFTNWFNEKFYSVFAIKLQVLVILTLLKMPEVPNSVSPLLNNLTNKLVELTLSLPKAIRNRDAVTEGKSLEGDLTPEEEEEYFIECDDDMKETVLDQINVFQEVHTFFKNLQNEDAGKYEKIINYLDESKRDSLQVILEFVSQH
modifications: GST-His6 tag
notes: as for B1
- PC [1]: 51.95
- PI(3, 4, 5)P3 (PI(3,4,5)P3 liposomes): 23.40
- PI(3, 4)P2 (PI(3,4)P2 liposomes): 19.15
- PI(4, 5)P2 (PI(4,5)P2 liposomes): 27.22
- PI(4)P (PI(4)P liposomes): 30.48

B5: DPS1: yeast GST-HisX6 fusion protein on proteome chip (protein, UniProt P04802 2-557, looked up)
Aspartate--tRNA ligase, …: SQDENIVKAVEESAEPAQVILGEDGKPLSKKALKKLQKEQEKQRKKEERALQLEAEREAREKKAAAEDTAKDNYGKLPLIQSRDSDRTGQKRVKFVDLDEAKDSDKEVLFRARVHNTRQQGATLAFLTLRQQASLIQGLVKANKEGTISKNMVKWAGSLNLESIVLVRGIVKKVDEPIKSATVQNLEIHITKIYTISETPEALPILLEDASRSEAEAEAAGLPVVNLDTRLDYRVIDLRTVTNQAIFRIQAGVCELFREYLATKKFTEVHTPKLLGAPSEGGSSVFEVTYFKGKAYLAQSPQFNKQQLIVADFERVYEIGPVFRAENSNTHRHMTEFTGLDMEMAFEEHYHEVLDTLSELFVFIFSELPKRFAHEIELVRKQYPVEEFKLPKDGKMVRLTYKEGIEMLRAAGKEIGDFEDLSTENEKFLGKLVRDKYDTDFYILDKFPLEIRPFYTMPDPANPKYSNSYDFFMRGEEILSGAQRIHDHALLQERMKAHGLSPEDPGLKDYCDGFSYGCPPHAGGGIGLERVVMFYLDLKNIRRASLFPRDPKRLRP
modifications: GST-His6 fusion tag
notes: as for B1
- PC [1]: 62.22
- PI(3, 4, 5)P3 (PI(3,4,5)P3 liposomes): 13.05
- PI(3, 4)P2 (PI(3,4)P2 liposomes): 25.12
- PI(4, 5)P2 (PI(4,5)P2 liposomes): 41.81
- PI(4)P (PI(4)P liposomes): 99.29
